According to article PMC5797236, “The odd one out: Arabidopsis reticulon 20 does not bend ER membranes but has a role in lipid regulation” (Scientific Reports, 2018):

T1: GFP-RTN20 (Arabidopsis reticulon 20) (Arabidopsis thaliana, UniProt A9X4U2 1-561)
T1 construct: Reticulon 20 (RTN20), Arabidopsis thaliana, locus At2g43420; FRET donor; the methods name Gateway vectors for N- or C-terminal GFP without saying which was used for each gene; also called RTNLB20; source: tobacco (Nicotiana tabacum) leaf epidermal cells, Agrobacterium-mediated transient expression, in living cells; not shown: GFP, N-terminal, kept
T1 sequence (looked up): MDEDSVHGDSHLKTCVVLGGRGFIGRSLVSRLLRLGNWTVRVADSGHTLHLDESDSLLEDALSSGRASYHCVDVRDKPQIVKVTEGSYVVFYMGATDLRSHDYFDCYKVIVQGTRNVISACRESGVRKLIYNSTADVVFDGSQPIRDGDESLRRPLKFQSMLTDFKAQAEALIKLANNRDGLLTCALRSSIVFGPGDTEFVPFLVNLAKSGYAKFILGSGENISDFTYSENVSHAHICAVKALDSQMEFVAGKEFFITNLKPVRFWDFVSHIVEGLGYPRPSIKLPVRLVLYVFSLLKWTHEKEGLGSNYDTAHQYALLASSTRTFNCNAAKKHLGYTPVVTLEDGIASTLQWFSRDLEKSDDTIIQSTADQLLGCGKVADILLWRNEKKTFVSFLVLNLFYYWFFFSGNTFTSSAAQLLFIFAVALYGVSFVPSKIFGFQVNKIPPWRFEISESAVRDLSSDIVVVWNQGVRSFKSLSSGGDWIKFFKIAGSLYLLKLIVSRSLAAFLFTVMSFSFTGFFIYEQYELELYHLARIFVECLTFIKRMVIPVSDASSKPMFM


Each binder was assayed against T1, GFP-RTN20 (Arabidopsis reticulon 20) (assay: FRET or BRET; FRET-FLIM in living tobacco leaf epidermal cells; GFP-RTN20 as donor, mRFP fusions as acceptors, transiently co-expressed; two-photon excitation at 920 nm; lifetimes measured at the ER associated with the nuclear envelope; donor alone 2.4 ± 0.03 ns). Conditions: partners not purified.

Binder	GFP donor fluorescence lifetime (FRET-FLIM) [ns]
RTN3 fused to mRFP (Arabidopsis reticulon 3) (natural protein, Arabidopsis thaliana, UniProt Q9SH59 1-255, looked up, Reticulon 3 (RTN3), Arabidopsis thaliana, locus AT1G64090; FRET acceptor; also called RTNLB3; source: tobacco (Nicotiana tabacum) leaf epidermal cells, Agrobacterium-mediated transient expression, in living cells) MAEEHKHEESIMEKISEKIHGHDDSSSSSSDSDDDKNSASLKTKIYRLFGREQPLHKLFGGGKPADIFLWRNKKVSGGVLGAATVSWILFELLEYNLLTLFGHISILALAVLFLWSSASTFIHKSPLHIPEVHIPEDVVLQLASGLRIEINRGFTVLRDIASGRDLKKFLLVIAGLWVLSKVGSSCNFLTLIYIATVLLFTIPVLYEKYEDKVDDFGEKAMREIKKQYVEFDVKVLSKVMSKIPKGAFAFIKKKD	2.2
RTN2 fused to mRFP (Arabidopsis reticulon 2) (natural protein, Arabidopsis thaliana, UniProt Q9SUT9 1-271, looked up, Reticulon 2 (RTN2), Arabidopsis thaliana, locus AT4G11220; FRET acceptor; also called RTNLB2; source: tobacco (Nicotiana tabacum) leaf epidermal cells, Agrobacterium-mediated transient expression, in living cells) MADEHKHEESSPNLDPAVEVVERESLMEKLSEKIHHKGDSSSSSSSDDENEKKSSSSSPKSLKSKVYRLFGRERPVHKVLGGGKPADIFMWKDKKMSGGVFGGATVAWVLFELMEYHLLTLLCHVMIVALAVLFLWSNATMFIHKSPPKIPEVHIPEEPLLQLASGLRIEINRGISSLREIASGRDIKKFLSAIAGLWVLSILGGCYSFLTLAYIALVLLFTVPLFYDKYEDKVDSYGEKAMAELKKQYAVLDAKVFSKIPRGPLKDKKKD	2.2

Now from value to binder:

GFP donor fluorescence lifetime (FRET-FLIM) [ns]	Binder
2.2	RTN19 fused to mRFP (Arabidopsis reticulon 19, 3BETAHSD/D2) (natural protein, Arabidopsis thaliana, UniProt Q67ZE1 1-564, looked up, Reticulon 19 (RTN19, 3beta-hydroxysteroid dehydrogenase/C-4 decarboxylase isoform 2), Arabidopsis thaliana, locus At2g26260; FRET acceptor; also called RTNLB19; source: tobacco (Nicotiana tabacum) leaf epidermal cells, Agrobacterium-mediated transient expression, in living cells) MSPAATETERWCVVTGGRGFAARHLVEMLVRYEMFCVRIADLAPAIMLDPQEGNGVLDEGLRSGRVQYISADLRDKSQVVKAFQGAEVVFHMAAPDSSINNHQLQYSVNVQGTQNVIDACVDVGVKRLIYTSSPSVVFDGVHGILNGTESMAYPIKHNDSYSATKAEGEELIMKANGRNGLLTCCIRPSSIFGPGDRLLVPSLVAAARAGKSKFIIGDGNNLYDFTYVENVAHAHVCAERALASGGDVSTKAAGQAYFITNMEPIKFWEFMSQLLDGLGYERPSIKIPAFIMMPIAHLVELTYKVLGPYGMTVPQLTPSRVRLLSCSRTFDSTKAKDRLGYAPVVPLQEGIRRTIDSFSHLTAGSQSKREGPSKASRILGGGKVADTLLWKDLKQTLIAIFILISIYYNFVATGSTVVTALSKALLVASVFLFLHGILPEKIFGYTVEKIPASQFHLSKDSSHDLSLSVISSWNTTVKALRSLCQGNDWSFFFKVVFVLLALSLAGAISLHSIFVIGLPIAFLAFLVYEKKEQEIDSIVVSFKSFACKHKSDVYEKLFGSKKHD
2.21 ± 0.02	mRFP-RTN1 (Arabidopsis reticulon 1) (natural protein, Arabidopsis thaliana, UniProt Q9SUR3 1-275, looked up, Reticulon 1 (RTN1), Arabidopsis thaliana, locus AT4G23630; FRET acceptor; also called RTNLB1; source: tobacco (Nicotiana tabacum) leaf epidermal cells, Agrobacterium-mediated transient expression, in living cells; not shown: mRFP, N-terminal, kept) MAEEHKHDESVIAPEPAVEVVERESLMDKISEKIHHGGDSSSSSSSSDDEDEKKKTKKPSSPSSSMKSKVYRLFGREQPVHKVLGGGKPADIFMWKNKKMSGGVLGGATAAWVVFELMEYHLLTLLCHVMIVVLAVLFLWSNATMFINKSPPKIPEVHIPEEPILQLASGLRIEINRGFSSLREIASGRDLKKFLIAIAGLWVLSILGGCFNFLTLAYIALVLLFTVPLAYDKYEDKVDPLGEKAMIELKKQYAVLDEKVLSKIPLGPLKNKKKD
